# Experimental data taken from the nanobody polyreactivity screen of Harvey et al. (2022).
# Experiment: yeast display, Sf9 membrane polyspecificity reagent, FACS + sequencing; frameworks hold sequencing errors
# Method in brief: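 Nanobodies came from a synthetic yeast display library in Saccharomyces cerevisiae BJ5465, induced with galactose for 36–48 hours and stained for 1 hour at 4 °C with 10% biotinylated, detergent-solubilized Sf9 membrane reagent. Cells were enriched on streptavidin microbeads and then FACS-sorted, with low and high (top ~1%) gates set on anti-HA fluorescence for expression and streptavidin fluorescence for reagent binding. Each polyreactivity label reflects the gate a clone came from. Genes were amplified by colony PCR, sequenced by MiSeq 2 × 250 and filtered by CDR length.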
row,Sequence,polyreactivity (PSR sort gate)
1,QVQLVESGGGLVQAGGSLRLSCAASGSIFYVYTMGWYRQAPGKERELVAAISSSAGSTYYADSVKGRFTISRDNAKNTVYLQMNSLKQEDTAVYYCAAKVRYSLRKYYYWGQGTQVTVSS,high polyreactivity
2,QVQLVESGGGLVQAGGSLRLSCAASGSIFYWNAMGWYRQAPGKERELVAAIDYSDGSTYYADSVKGRFTISRDNAKNTVYLQMNSLKPEDTAVYYCAAEWYYDLYDYWGQGTQVTVSS,high polyreactivity
3,QVQLVESGGGLVQAGGSLRLSCAASGSIFYWYAIGWYRQAPGKETELVAAISSGGSTNYADSVKGRFTISRDNAKNTVYLQMNSLKPEDTAVYYCNADIRSFYWEYYTGLDSWGQGTQVTVSS,low polyreactivity
4,QVQLVESGGGLVQAGGSLRLSCAASGSIFYWYALGWYRQAPGKERELVADITTSDGRTYYADSVKGRFTISRDNAKNTVNLQMNSLKPEDTAVYYCAADPFSGYGFQYYRGLYYWGQGTQVSVSS,low polyreactivity
5,QVQLVESGGGLVQAGGSLRLSCAASGSIFYWYAMGWYRQAPGKERELVAAISSGGSTNYADSVKGRFTISRDNAKNTVYLQMNSLKPEDTAVYYCNADIRSFYWEYYTGLDSWGQVTQVTVSS,low polyreactivity
6,QVQLVESGGGLVQAGGSLRLSCAASGSIFYWYAMGWYRQAPGKERELVAAITRSAGTTYYADSVKGRITISRDNAKNTVYLQMNSLKPEDTAVYYCAATYPRPYGSRPRYEYWGQGTQVTVSS,high polyreactivity
7,QVQLVESGGGLVQAGGSLRLSCAASGSIFYYNAMGWSRQAPGKERELVAGIRRSGDSTYYADSVKGRFTISRDNAKNTVYLQMNSLKPEDTAVYYCAAYLYLEYYYWGQGTQVTVSS,low polyreactivity
8,QVQLVESGGGLVQAGGSLRLSCAASGSIFYYNAMGWYRQAPGKERELVAAISSSGGSTYYADSVKGRFTISRDNAKNTVYLQMNSLKPEDTAVYYCAAKLRHWAHHTKYDYWGQGTQVSVSS,low polyreactivity
9,QVQLVESGGGLVQAGGSLRLSCAASGSIFYYNAMGWYRQAPGKERELVAAMSWSGGSTYDADSVKGRFTISRDNAKHTVYLQMNSLKPEDTAVYYCRYYRRDEMDYWGQGTQVTVSS,high polyreactivity
10,QVQLVESGGGLVQAGGSLRLSCAASGSIFYYNAMGWYRQAPGKERELVATITQSGGGRTYYADSVKGRFTISRDNAKNTVYLQMNSLKPEDTAVYYCAAKPDKYKSYRYGYWGQGTQVTVSS,low polyreactivity
11,QVQLVESGGGLVQAGGSLRLSCAASGSIFYYNAMGWYRQAPGQERELVAGINYSGGSTYYADSVKGRFTISRDNAKNTVYLQMNSLIPEDTADYYCAARPRYLNARKYYYWGLGTQVTVSS,high polyreactivity
12,QVQLVESGGGLVQAGGSLRLSCAASGSIFYYNTMGWYRQAPGKEREFVADISVIGGSTYYADSVKGRFTISRDNAKNTVYLQMNSLKPEDTAVYYCAARRYLRPHGLYGYWGQGSQVTVSS,low polyreactivity
13,QVQLVESGGGLVQAGGSLRLSCAASGSIFYYNVMGWYRQAPGKETELVAAISQSGVRTYYADSVKGRFTISRDNAKNTVYLQMNSLKPEDTAVYYCAAKARRLYASSYDYWGQGTQVTVSS,high polyreactivity
14,QVQLVESGGGLVQAGGSLRLSCAASGSIFYYYAAMGWYRQAPGKERELVAAIDSSDGTTYYADSVKGRFTISRDNAKNTVYLQMNSLKPEDTAVYYCAAETVQEFEYWGQGTQVTVSS,high polyreactivity
15,QVQLVESGGGLVQAGGSLRLSCAASGSIFYYYAMGWSRQAPGKERELVAAITWRGGRTYYADSVKGRFTISRDNAKNTVYLQMNSLKPEDTAVYYCAADSRYYQYIYIHGYDYWGQGTQVTVSS,high polyreactivity
16,QVQLVESGGGLVQAGGSLRLSCAASGSIFYYYAMGWYRQAPGKEMELVAAIDSGGSTYYAHSVKGRFTISRDNAKNTVYLQMNSLKPEDTAVYYCAADTYWFVYYGYDYWGQGTQVTVSS,low polyreactivity
17,QVQLVESGGGLVQAGGSLRLSCAASGSIFYYYAMGWYRQAPGKEREFVAAIRESGGSTYYADSVKGRFTISRDNAKNTVYLQMNSLKPEDTAVYYCAVRRPRRNYNYPYDYCGQGTQVTVSS,low polyreactivity
18,QVQLVESGGGLVQAGGSLRLSCAASGSIFYYYAMGWYRQAPGKERELVAAISDDAITYYADSVKGRFTISRDNAKNTVYLQMNSLKPEDTAVYYCAAELYYPVGFDYWGQGTQVTVSS,high polyreactivity
19,QVQLVESGGGLVQAGGSLRLSCAASGSIFYYYAMGWYRQAPGKERELVAAISSGGSTNYADSVKGRFTISRDYAKNTVYLQMNSLKPEDTAVYYCAADYRAQYVVWYTYDYWGQGTQVTVSS,low polyreactivity
20,QVQLVESGGGLVQAGGSLRLSCAASGSIFYYYAMGWYRQAPGKERELVAAITYDAGSTYYADSVKGRFTISRDNAKNTVYLQMNSLKPEDTAVYYCATDGIYHWGVYTPYDYWGQGTQVTVSS,low polyreactivity
21,QVQLVESGGGLVQAGGSLRLSCAASGSIFYYYAMGWYRQAPGKERELVASITSGGRTYYADSVKGRFTISRDNAKNTVYFQMNSLKPEDTAVYYCAAVYGGLTLTRNYYWGQGTQVTVSS,high polyreactivity
22,QVQLVESGGGLVQAGGSLRLSCAASGSIFYYYGMGWYRQAPGKERELVAGISSRGGRTYYADSVKGRFTISRDNAKNTVYLQMNSLKPEDTAVYYCAADRYYYAYRYYPSGYWGQGTQVTVSS,low polyreactivity

row,Sequence,polyreactivity (PSR sort gate)
1,QVQLVESGGGLVQAGGSLRLSCAASGSIFYYYTMGWDRQAPGKERELVADITYRGGSTYYADSVKGRFTISRDNAKNTVYLLMNSLKPEDTAVNFCAAASLVRGGHFDYWGQGTQVTVSS,high polyreactivity
2,QVQLVESGGGLVQAGGSLRLSCAASGSIFYYYVMGWYRQAPGKERELVAAIRSSGTSTYYADSVKGRFTISRDNAKNTVYLQMNSLKPEDTAVYYCNRARSSSRYDYWGQGTQVTVSS,low polyreactivity
3,QVQLVESGGGLVQAGGSLRLSCAASGSIFYYYVMGWYRQAPGKERELVAAITYSGGRTYYADSVKGRFTISRDNAKYTVYLQMNSLKPEDTAVYYCNVVIYYFNSRSVFYDYDYWGQGTQVTVSS,high polyreactivity
4,QVQLVESGGGLVQAGGSLRLSCAASGSIIDWNAMGWYRQAPGKERELVAVISWGGGSTYADSVKGRFTISRDNAKNTVYLQMNSLKPEDTAVYNCNKEPIYYPVSDYDYWGQGTQVTVSS,low polyreactivity
5,QVQLVESGGGLVQAGGSLRLSCAASGSIIGIYALGWYRQAPGKERELVAAISWSGGSTYYADSVKGRFTISRDNAKNTVYLQMNSLKPEDTAVYYCAARGHYQYYWGQGTQVTVSS,low polyreactivity
6,QVQLVESGGGLVQAGGSLRLSCAASGSIIGLYVMGWYRQAPGKERELVAAISWSGGSTYYADSVKGRFTISRDNAKNTVYLQMNSLKPEDTAVYYCAARVYSVADYYYWGQGTQVTVSS,low polyreactivity
7,QVQLVESGGGLVQAGGSLRLSCAASGSIIGRNAMGWYRQAPGKERELVAAISTRGGRTYYADSVKGRFTISRDNAKNTVYLQMNSLKPEDTAVYYCAATYQYLKSGYYWGQGTQVTVSS,high polyreactivity
8,QVQLVESGGGLVQAGGSLRLSCAASGSIIGYYAMGWYRQARGKERELVAAISSSGASTYYADSVKGRFTISRDNAKYTVYLQMNSLKPEDTAVYYCNAARRYPTRGGYWGQGTQVTVSS,high polyreactivity
9,QVQLVESGGGLVQAGGSLRLSCAASGSIIHDNAMGWYRQAPGKERELVAAINRGGSTHYADSVKGRFTISRDNAKNTVYLQMNSLKPEDTAVYYCAADGIRPEVGYWGQGTQVTVSS,low polyreactivity
10,QVQLVESGGGLVQAGGSLRLSCAASGSIIKPYAMGWYRQAPGKERELVAAIRSSGGRTNYADSVKGRFTISRDNAKNTVYLQMNSLKPEDTAVYYCAKRYYGRKYYYWGQGTHVTVSS,high polyreactivity
11,QVQLVESGGGLVQAGGSLRLSCAASGSIIKRNAMGWYRQAPGKERELVASISSGGSTKYADSVKGRFTISRDNAKNTVYLQKNSLKPEDTAVSYCAKRSSQTRRAYDYGGQGTQVTVSS,low polyreactivity
12,QVQLVESGGGLVQAGGSLRLSCAASGSIILRYAMGWYRQATGKERELVAAISNRGGSTYYADSVKGRFTISRDNAKNTVYLQMNSLKPEDTAVYYCAVRSTNERSAGKRRYYYWGQGTQVTVSS,high polyreactivity
13,QVQLVESGGGLVQAGGSLRLSCAASGSIIQGYVMGWYRQAPGKERELVAAISNSGSSTYYADSVKGRFTISRDNAKNTVYIQMNSLKPEDTAVYYCAVLRSYRGYKYGYWGQGTQVTVSS,high polyreactivity
14,QVQLVESGGGLVQAGGSLRLSCAASGSIIRAYAMGWYRQAPGKERELVAAITIGDSTYYADSVKGRFTISRDNAKNTVYLQMNSLKPEDTAVYYCAAKSQHLYTRRFNYWGQGTQVTVSS,low polyreactivity
15,QVQLVESGGGLVQAGGSLRLSCAASGSIIRGNAMGWYSQAPGKERELVATITNGGSTNYADSVKGRFTISRDNAKNTVYFQMNSMKPEDTAVYYCNADHSYHIASTRHVDFWGQGTQVTVSS,low polyreactivity
16,QVQLVESGGGLVQAGGSLRLSCAASGSIIRRYAMGWYRQAPGKERELVAAISSNGGSTYYADSVKGRFTISRDNAKNTVYLQMNSLKPEDTAVYYCNKLSSYVVARRTTEYDYWGQGTQVTVSS,high polyreactivity
17,QVQLVESGGGLVQAGGSLRLSCAASGSIIRWNAMGWYRQAPGKERELVAAITGGGGNTYYSDSVKGRFTISRDNAKNTVYLQMNSLKPEDTAVYYCNVVYRNYRNDYWGQGTQVTVSS,high polyreactivity
18,QVQLVESGGGLVQAGGSLRLSCAASGSIISINAMGWYRQAPGKERELVAAITWSGGSTYYADSVKGRVTISRDNAKNTVYLQMNSLKPEDTAVYYCAAAFWFQRGTGYYTSKFDYWGQGTQVTVSS,low polyreactivity
19,QVQLVESGGGLVQAGGSLRLSCAASGSIITWNAMGWYRQAPGKERELVAAIDWDGGSTYYADSVKGRFTISRDNAKNTVYLQMNSLKPEDSAVYYCAATYGWYTGRYPSGHYYYWGQGTQVTVSS,low polyreactivity
20,QVQLVESGGGLVQAGGSLRLSCAASGSIITWYTMGWYRQATGKERELVASISSGGTTKYADSVKGRFTISRDNAKNTVYLQMNCLKPEDTAVYYCAAEYIAYYGTGTYYGLDYWGQGTQVTVSS,low polyreactivity
21,QVQLVESGGGLVQAGGSLRLSCAASGSIIVRNAMGWYRQAPGKERELVAAISKSGGSTYYADSVKGRFTISRDNAKNTVYLQMNSLKPEDTAVYYCAVYPRSTLRTFQRDYWGQGTQVTVSS,high polyreactivity
